According to patent US20180296689A1:
Values belong to the substance of their own block, whether it stands above or below them.

Columns and labels:
[1] = target: CD74 (invariant chain, Ii), human, on tumor cell lines (human) (UniProt P04233); experiment: cell binding to antigen-positive cells (cell line not given)
[2] = target: CD74 (invariant chain, Ii), human, on tumor cell lines (human) (UniProt P04233); experiment: flow cytometry, surface and cytoplasmic (permeabilized), NCI-N87 cells
[3] = target: CD74 (invariant chain, Ii), human, on tumor cell lines (human) (UniProt P04233); experiment: flow cytometry, surface only, Hs746T cells
[4] = target: CD74 (invariant chain, Ii), human, on tumor cell lines (human) (UniProt P04233); experiment: flow cytometry, surface and cytoplasmic (permeabilized), HuH-7 cells
[5] = target: CD74 (invariant chain, Ii), human, on tumor cell lines (human) (UniProt P04233); experiment: flow cytometry, surface only, Hep-G2 cells
[6] = target: CD74 (invariant chain, Ii), human, on tumor cell lines (human) (UniProt P04233); experiment: flow cytometry, surface only, HuH-7 cells
[7] = target: CD74 (invariant chain, Ii), human, on tumor cell lines (human) (UniProt P04233); experiment: flow cytometry, surface only, Raji cells
[8] = target: CD74 (invariant chain, Ii), human, on tumor cell lines (human) (UniProt P04233); experiment: flow cytometry, surface and cytoplasmic (permeabilized), Hep-G2 cells
[9] = target: CD74 (invariant chain, Ii), human, on tumor cell lines (human) (UniProt P04233); experiment: flow cytometry, surface and cytoplasmic (permeabilized), Capan-1 cells
[10] = target: CD74 (invariant chain, Ii), human, on tumor cell lines (human) (UniProt P04233); experiment: flow cytometry, surface only, A-375 cells
[11] = target: CD74 (invariant chain, Ii), human, on tumor cell lines (human) (UniProt P04233); experiment: flow cytometry, surface only, NCI-N87 cells
[12] = target: CD74 (invariant chain, Ii), human, on tumor cell lines (human) (UniProt P04233); experiment: flow cytometry, surface only, Capan-1 cells
[13] = target: CD74 (invariant chain, Ii), human, on tumor cell lines (human) (UniProt P04233); experiment: flow cytometry, surface and cytoplasmic (permeabilized), Hs746T cells
[14] = target: CD74 (invariant chain, Ii), human, on tumor cell lines (human) (UniProt P04233); experiment: flow cytometry, surface and cytoplasmic (permeabilized), Raji cells
[15] = target: CD74 (invariant chain, Ii), human, on tumor cell lines (human) (UniProt P04233); experiment: flow cytometry, surface and cytoplasmic (permeabilized), A-375 cells
[16] = target: TROP-2 (EGP-1), human, on tumor cell lines (human) (UniProt P09758); experiment: cell binding on TROP-2-positive PC-3 human prostate carcinoma cells, three separate occasions
Sequence of TROP-2 (EGP-1), human, on tumor cell lines (human) (P09758 27-323): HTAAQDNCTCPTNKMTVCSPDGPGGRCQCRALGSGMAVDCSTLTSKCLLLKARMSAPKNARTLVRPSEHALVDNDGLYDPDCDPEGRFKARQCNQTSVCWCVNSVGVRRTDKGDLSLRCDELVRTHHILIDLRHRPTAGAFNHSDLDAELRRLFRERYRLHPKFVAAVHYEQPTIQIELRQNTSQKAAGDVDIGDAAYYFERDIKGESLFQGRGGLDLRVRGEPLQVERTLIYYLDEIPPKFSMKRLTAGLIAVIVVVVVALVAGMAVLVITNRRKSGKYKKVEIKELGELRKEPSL

[17] = target: Human neonatal receptor (FcRn) (human) (UniProt P55899); experiment: SPR (BIACore), low density FcRn biosensor chip, three runs of five dilutions
Sequence of Human neonatal receptor (FcRn) (human) (P55899 24-297 limits assumed): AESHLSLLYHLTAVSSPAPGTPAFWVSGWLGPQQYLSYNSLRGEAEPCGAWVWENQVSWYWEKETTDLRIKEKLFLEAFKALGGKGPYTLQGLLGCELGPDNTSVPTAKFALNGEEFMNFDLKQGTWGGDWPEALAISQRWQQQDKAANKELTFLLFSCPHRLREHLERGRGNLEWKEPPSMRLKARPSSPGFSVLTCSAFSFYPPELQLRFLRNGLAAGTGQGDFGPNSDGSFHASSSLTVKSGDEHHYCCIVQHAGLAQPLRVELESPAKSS

Sequence of CD74 (invariant chain, Ii), human, on tumor cell lines (human) (P04233 whole entry, change not shown): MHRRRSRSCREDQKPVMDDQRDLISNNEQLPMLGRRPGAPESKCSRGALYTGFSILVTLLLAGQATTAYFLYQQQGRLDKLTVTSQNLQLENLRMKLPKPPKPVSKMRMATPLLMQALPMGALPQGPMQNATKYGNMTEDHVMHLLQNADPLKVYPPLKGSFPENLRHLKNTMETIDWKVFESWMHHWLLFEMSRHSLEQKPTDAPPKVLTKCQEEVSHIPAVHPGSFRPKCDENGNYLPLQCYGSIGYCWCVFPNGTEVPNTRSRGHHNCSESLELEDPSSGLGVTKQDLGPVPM

- Kd [1]: 0.8 nM
Substance: milatuzumab-CL2E-SN-38 conjugate (antibody)

- MFI [2]: 220 MFI
- MFI Ratio hLL1:bkgd [2]: 36.7
- MFI [3]: 17 MFI
- MFI Ratio hLL1:bkgd [3]: 2.1
- MFI [4]: 114 MFI
- MFI Ratio hLL1:bkgd [4]: 28.5
- MFI [5]: 9 MFI
- MFI Ratio hLL1:bkgd [5]: 1.5
- MFI [6]: 8 MFI
- MFI Ratio hLL1:bkgd [6]: 1.6
- MFI [7]: 59 MFI
- MFI Ratio hLL1:bkgd [7]: 19.6
- MFI [8]: 156 MFI
- MFI Ratio hLL1:bkgd [8]: 31.2
- MFI [9]: 248 MFI
- MFI Ratio hLL1:bkgd [9]: 49.6
- MFI [10]: 16 MFI
- MFI Ratio hLL1:bkgd [10]: 5.3
- MFI [11]: 5 MFI
- MFI Ratio hLL1:bkgd [11]: 1.3
- MFI [12]: 22 MFI
- MFI Ratio hLL1:bkgd [12]: 1.8
- MFI [13]: 144 MFI
- MFI Ratio hLL1:bkgd [13]: 28.8
- Kd [1]: 0.77 nM
- MFI [14]: 143 MFI
- MFI Ratio hLL1:bkgd [14]: 28.6
- MFI [15]: 185 MFI
- MFI Ratio hLL1:bkgd [15]: 30.8
Substance: Milatuzumab (hLL1, humanized anti-CD74 IgG1 monoclonal antibody, unconjugated)

- Kd [16]: 0.658 nM
- Kd [17]: 92.4 nM
Substance: IMMU-132 (hRS7-CL2A-SN-38 antibody-drug conjugate)

- Kd [1]: 0.59 nM
Substance: milatuzumab-CL2A-SN-38 conjugate (antibody)
